The RNAGym collection of RNA variant scans (doi:10.7554/elife.90254)

B1: OR4K15 (parent)
chain: GUUAACGGUCAUAGGCCAUGGAAACUAGGAGCACCAUUUCGCUGCCAGUGAAGAAAUGAACAAAGAAAAUCUGGGCCAGGCAGGCAUCAAAAGAAAUAGUCUUGCGCUCAACCAGAAAGUCUGUAAUCAUUUUAAGGGUA

Variants of: B1
Test: self-cleavage, relative activity (ratio to wild type); higher = more cleavage; in vitro, sequencing; the parent is a self-cleaving ribozyme

Variant	self-cleavage
U49A A69G	1.49
A36G A96C	0.95
A47U U127C	0.59
G50U U127C	1.29
A95G A134G	1.89
A82G U97A	0.92
C101U U127A	0.45
C40U A114U	0.1
C46U U102A	1.59
A92G G137A	1.34
G44A A94G	1.48
C6U A125G	0.53
U102C A116G	0.7
G21U	1.51
U19A A66U	1.07
A36U A95U	1.37
C16U A78G	0.62
U3C C101U	0.51
U37A A89G	0.43
A24G A91U	1.61
A4G G83A	1.44
C16U U57C	1.14
G44A G93C	1.87
G41A A64G	2.12

Variant	self-cleavage
A78U A126U	0.35
A23G A47G	0.86
U19C A68G	1.24
G31A A91U	1.99
U37C C42G	1.69
G48U A96G	1.28
G20C U124A	0.67
A4G A18G	1.23
A110G U133C	0.25
A24G A67G	1.32
A30C U130C	1.21
A56C A125C	0.7
A89U U132A	1.35
A111G U132A	0.02
A54G U133C	1.88
U103C U130C	0.57
A22G G138U	0.66
U37C A110G	0.13
U3C U87C	0.63
A64U U122A	1.78
A33C U57A	1.1
A78G U122C	0.19
A56G A135G	1.61
U70C G74U	0.17

Variant	self-cleavage
A56G G136A	1.69
A24C A78C	0.36
U2G A33G	0.43
U72C U97C	0.1
G21C U102C	2.26
U131C U133A	0.91
G53U A59G	1.26
A51G U127G	1.9
A78U U108C	0.01
A5G G44A	0.86
A91G C105G	0.01
U9C A90G	1.04
U70C G106A	0.01
G73A A117U	0.17
A23G G75C	0.16
A62G C85U	0.63
A114G A134U	0.23
A116C A129G	0.05
A24G A33C	1.62
A60G A110U	1.3
U49C G138C	1.54
U38A A94U	1.28
U37C A89G	1.52
G31A U103C	0.46

Variant	self-cleavage
A67U A69U	1.69
U3C A118U	1.94
A18G A64G	1.11
A18U A62G	1.37
A94G U108A	0.01
A114U U120A	0.05
A23G A117C	0.36
A94G A96U	0.68
A94G C101A	0.3
A54G A114C	0.09
A63U U100C	2.04
C88U U127C	2.09
U43C A68U	1.74
A67G U122C	0.99
A59G U102A	0.81
A64C A140U	1.86
A118G C128U	0.61
G8C A52C	2.89
A59G A90G	0.78
A134G A135U	0.3
C81U A86G	0.17
A69G G73U	0.33
A54G C77U	1.46
G50A A66U	0.67

Variant	self-cleavage
A52C U127A	1.62
A47G G99A	0.4
A92G U97C	1.57
A56G U120A	1.19
C40G U72C	0.41
A64G A96C	0.76
A36C U100C	1.85
A47G A140U	1.24
A22G A63G	1.72
G48A A129G	1.14
A60G U130C	1.07
C85U U108G	0.01
C85U U108C	0.04
U49C U122C	0.52
U2C G136A	1.66
U57A U124C	0.68
A92G U100C	1.84
A11U U37C	1.01
A89U U124C	1.38
A24U A111G	0.03
C17U A23G	1.37
G7A U127C	1.29
A22U U103C	1.66
A62C A86G	1.15

Variant	self-cleavage
A52U U130C	1.8
A118G U132C	0.18
U49C A52U	1.38
A27G A91G	1.22
A69U A86G	2.37
U57A A98U	1.47
A30G A64U	0.3
A60U A98G	0.39
A27U A52U	2
A22G A114C	0.03
G123U G136A	2.35
A33G A91U	0.94
G7U U130C	1.45
C40U G44A	2.32
G14C U127C	1.15
C6U A33U	1.05
A129G A140G	1.24
G1A A92G	1.66
A36C U37A	1.85
A69G U72C	0.3
U70C A96G	0.75
U72C A125G	0.07
U19A A33C	1.31
A95U U130C	0.47

Variant	self-cleavage
G15A U120C	1.01
A66G U124A	1.19
U2C A51U	0.82
A27G A59U	1.24
U132A A135G	0.87
U3A U130G	0.73
A33U A64G	1.31
A5G U108A	0.05
C46U U132C	1.97
A68G A140G	1.91
U39C G41U	1.16
A62U A110U	1.27
A89U A118U	0.73
C121A U122C	1.62
A4G A91U	1.36
U72G A92G	0.42
G20A A59G	1.19
G44A U57C	1.84
A116G U124A	0.69
A52U	0.8
A111G	0.02
A56G U131A	0.6
U72C C105U	0.03
